Key:
[1] = biological target: L-glutaminase-asparaginase from Pseudomonas 7A, K173M variant (Pseudomonas 7A) (UniProt Q88K39); assay: crystal structure; co-crystallised with small ligands, hanging drop; protein 12.5-13.5 mg/ml in 50 mM HEPES pH 7.0, 200 mM NaCl; four protomers in the asymmetric unit as two intimate dimers (A,B) and (C,D)
[2] = biological target: T1, EcAII (type II L-asparaginase from E. coli) (Escherichia coli, UniProt P00805); assay: Q-TOF LC/MS of substrate, product and hydroxamate (data not shown); type: biochemical; conditions: 25 mM HEPES pH 7.7; 8 mM substrate, 27.8 nM enzyme, 0.4 M NH2OH
T1 construct: gene ansB; periplasmic enzyme, homotetramer; preparation not described here
T1 sequence (P00805 23-348): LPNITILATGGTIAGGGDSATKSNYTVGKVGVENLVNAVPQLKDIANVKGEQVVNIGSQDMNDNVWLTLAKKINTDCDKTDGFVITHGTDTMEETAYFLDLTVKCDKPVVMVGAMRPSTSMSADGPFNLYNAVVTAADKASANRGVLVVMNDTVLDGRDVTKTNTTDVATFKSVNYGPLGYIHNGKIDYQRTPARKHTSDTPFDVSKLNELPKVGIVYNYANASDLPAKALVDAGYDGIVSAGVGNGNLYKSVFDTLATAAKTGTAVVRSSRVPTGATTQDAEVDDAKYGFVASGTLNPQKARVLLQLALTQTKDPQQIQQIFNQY

[3] = biological target: L-glutaminase-asparaginase from Pseudomonas 7A, wild type (Pseudomonas 7A) (UniProt Q88K39); assay: crystal structure; co-crystallised with small ligands, hanging drop; protein 12.5-13.5 mg/ml in 50 mM HEPES pH 7.0, 200 mM NaCl; four protomers in the asymmetric unit as two intimate dimers (A,B) and (C,D)

L-glutaminase-asparaginase from Pseudomonas 7A, K173M variant (from UniProt Q88K39 26-362) (enzyme)
stoichiometry N [1]: 4

NC(=O)C[C@H](N)C(=O)O [L-Asn]
Q-TOF LC/MS of substrate, product and hydroxamate (data not shown) [2]: EcAII(wt) with L-Asn were monitored (not shown)

L-glutaminase-asparaginase from Pseudomonas 7A, wild type (from UniProt Q88K39 26-362) (enzyme)
stoichiometry N [3]: 4

Source: article PMC7567106, “Generalized enzymatic mechanism of catalysis by tetrameric L-asparaginases from mesophilic bacteria” (Scientific Reports, 2020)
